Results on 1 molecule are retold here after article doi:10.1101/2025.09.02.673761 (bioRxiv, 2025).

This experiment has as its target GFP-tagged holo-CPC (Chromosomal Passenger Complex: INCENP, GFP-Aurora B, Borealin, Survivin) (human, UniProt Q9NQS7;Q96GD4;Q53HL2;O15392). The experiment can be described thus: pull-down.

Sequence of GFP-tagged holo-CPC (Chromosomal Passenger Complex: INCENP, GFP-Aurora B, Borealin, Survivin) (Q9NQS7 whole entry, chain 1 of 4): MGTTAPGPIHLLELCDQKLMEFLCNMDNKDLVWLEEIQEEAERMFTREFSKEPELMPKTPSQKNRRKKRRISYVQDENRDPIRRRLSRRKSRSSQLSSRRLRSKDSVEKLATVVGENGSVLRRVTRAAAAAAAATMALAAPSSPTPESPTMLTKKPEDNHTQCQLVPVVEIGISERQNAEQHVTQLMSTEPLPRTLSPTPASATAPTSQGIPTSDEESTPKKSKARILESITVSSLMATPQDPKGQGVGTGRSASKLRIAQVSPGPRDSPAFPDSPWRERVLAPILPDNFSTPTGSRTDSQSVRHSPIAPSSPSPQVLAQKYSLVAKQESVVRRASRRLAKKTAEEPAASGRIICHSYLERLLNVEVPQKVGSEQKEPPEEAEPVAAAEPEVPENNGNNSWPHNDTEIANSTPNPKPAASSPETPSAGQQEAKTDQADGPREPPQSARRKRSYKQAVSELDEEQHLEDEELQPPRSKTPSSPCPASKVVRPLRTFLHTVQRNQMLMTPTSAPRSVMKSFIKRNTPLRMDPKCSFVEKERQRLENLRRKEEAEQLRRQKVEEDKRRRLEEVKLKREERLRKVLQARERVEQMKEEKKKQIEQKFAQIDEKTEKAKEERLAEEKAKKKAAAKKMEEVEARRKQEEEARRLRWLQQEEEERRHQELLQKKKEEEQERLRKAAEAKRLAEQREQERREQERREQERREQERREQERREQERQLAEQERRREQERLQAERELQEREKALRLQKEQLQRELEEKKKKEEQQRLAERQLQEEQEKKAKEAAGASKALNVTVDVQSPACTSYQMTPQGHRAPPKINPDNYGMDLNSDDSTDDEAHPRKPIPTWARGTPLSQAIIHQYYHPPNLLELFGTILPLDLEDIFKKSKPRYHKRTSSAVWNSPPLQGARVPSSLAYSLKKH
Sequence of GFP-tagged holo-CPC (Chromosomal Passenger Complex: INCENP, GFP-Aurora B, Borealin, Survivin) (Q96GD4 whole entry, chain 2 of 4): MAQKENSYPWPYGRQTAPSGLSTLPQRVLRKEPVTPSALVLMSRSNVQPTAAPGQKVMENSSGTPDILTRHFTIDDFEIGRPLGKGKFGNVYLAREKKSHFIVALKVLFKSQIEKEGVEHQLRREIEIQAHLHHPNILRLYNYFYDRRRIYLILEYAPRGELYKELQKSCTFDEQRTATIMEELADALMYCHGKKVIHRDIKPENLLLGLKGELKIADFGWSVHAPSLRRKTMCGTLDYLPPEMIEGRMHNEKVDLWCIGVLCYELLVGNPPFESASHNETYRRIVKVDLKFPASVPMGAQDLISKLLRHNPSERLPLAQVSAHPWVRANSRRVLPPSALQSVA
Sequence of GFP-tagged holo-CPC (Chromosomal Passenger Complex: INCENP, GFP-Aurora B, Borealin, Survivin) (Q53HL2 whole entry, chain 3 of 4): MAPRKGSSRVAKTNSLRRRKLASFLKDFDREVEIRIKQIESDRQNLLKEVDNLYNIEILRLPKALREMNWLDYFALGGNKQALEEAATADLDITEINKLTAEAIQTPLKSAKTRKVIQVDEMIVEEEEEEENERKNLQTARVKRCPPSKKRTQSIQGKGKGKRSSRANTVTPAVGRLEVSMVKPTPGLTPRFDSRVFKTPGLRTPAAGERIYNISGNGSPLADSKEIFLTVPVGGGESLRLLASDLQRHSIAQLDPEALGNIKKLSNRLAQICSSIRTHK
Sequence of GFP-tagged holo-CPC (Chromosomal Passenger Complex: INCENP, GFP-Aurora B, Borealin, Survivin) (O15392 whole entry, chain 4 of 4): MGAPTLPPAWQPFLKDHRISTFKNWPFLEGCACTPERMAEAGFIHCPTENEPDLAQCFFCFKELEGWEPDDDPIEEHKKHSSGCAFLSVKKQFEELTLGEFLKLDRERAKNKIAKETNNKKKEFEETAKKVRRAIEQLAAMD

B1: KIF20A (kinesin-6 motor), unlabeled (natural protein)
chain: MSQGILSPPAGLLSDDDVVVSPMFESTAADLGSVVRKNLLSDCSVVSTSLEDKQQVPSEDSMEKVKVYLRVRPLLPSELERQEDQGCVRIENVETLVLQAPKDSFALKSNERGIGQATHRFTFSQIFGPEVGQASFFNLTVKEMVKDVLKGQNWLIYTYGVTNSGKTHTIQGTIKDGGILPRSLALIFNSLQGQLHPTPDLKPLLSNEVIWLDSKQIRQEEMKKLSLLNGGLQEEELSTSLKRSVYIESRIGTSTSFDSGIAGLSSISQCTSSSQLDETSHRWAQPDTAPLPVPANIRFSIWISFFEIYNELLYDLLEPPSQQRKRQTLRLCEDQNGNPYVKDLNWIHVQDAEEAWKLLKVGRKNQSFASTHLNQNSSRSHSIFSIRILHLQGEGDIVPKISELSLCDLAGSERCKDQKSGERLKEAGNINTSLHTLGRCIAALRQNQQNRSKQNLVPFRDSKLTRVFQGFFTGRGRSCMIVNVNPCASTYDETLHVAKFSAIASQLVHAPPMQLGFPSLHSFIKEHSLQVSPSLEKGAKADTGLDDDIENEADISMYGKEELLQVVEAMKTLLLKERQEKLQLEMHLRDEICNEMVEQMQQREQWCSEHLDTQKELLEEMYEEKLNILKESLTSFYQEEIQERDEKIEELEALLQEARQQSVAHQQSGSELALRRSQRLAASASTQQLQEVKAKLQQCKAELNSTTEELHKYQKMLEPPPSAKPFTIDVDKKLEEGQKNIRLLRTELQKLGESLQSAERACCHSTGAGKLRQALTTCDDILIKQDQTLAELQNNMVLVKLDLRKKAACIAEQYHTVLKLQGQVSAKKRLGTNQENQQPNQQPPGKKPFLRNLLPRTPTCQSSTDCSPYARILRSRRSPLLKSGPFGKKY
As for B1, the binding result was “binds”.
